Ends that are not written are not given here.
Legend:
[1] = target: recombinant extracellular domain of EGFR protein (Homo sapiens, UniProt P00533); test: SPR binding to immobilized EGFR extracellular domain; settings: peptide 0 to 200 μM as analyte
[2] = target: HER3 (UniProt P21860); test: SPR
Sequence of HER3 (P21860 20-1342): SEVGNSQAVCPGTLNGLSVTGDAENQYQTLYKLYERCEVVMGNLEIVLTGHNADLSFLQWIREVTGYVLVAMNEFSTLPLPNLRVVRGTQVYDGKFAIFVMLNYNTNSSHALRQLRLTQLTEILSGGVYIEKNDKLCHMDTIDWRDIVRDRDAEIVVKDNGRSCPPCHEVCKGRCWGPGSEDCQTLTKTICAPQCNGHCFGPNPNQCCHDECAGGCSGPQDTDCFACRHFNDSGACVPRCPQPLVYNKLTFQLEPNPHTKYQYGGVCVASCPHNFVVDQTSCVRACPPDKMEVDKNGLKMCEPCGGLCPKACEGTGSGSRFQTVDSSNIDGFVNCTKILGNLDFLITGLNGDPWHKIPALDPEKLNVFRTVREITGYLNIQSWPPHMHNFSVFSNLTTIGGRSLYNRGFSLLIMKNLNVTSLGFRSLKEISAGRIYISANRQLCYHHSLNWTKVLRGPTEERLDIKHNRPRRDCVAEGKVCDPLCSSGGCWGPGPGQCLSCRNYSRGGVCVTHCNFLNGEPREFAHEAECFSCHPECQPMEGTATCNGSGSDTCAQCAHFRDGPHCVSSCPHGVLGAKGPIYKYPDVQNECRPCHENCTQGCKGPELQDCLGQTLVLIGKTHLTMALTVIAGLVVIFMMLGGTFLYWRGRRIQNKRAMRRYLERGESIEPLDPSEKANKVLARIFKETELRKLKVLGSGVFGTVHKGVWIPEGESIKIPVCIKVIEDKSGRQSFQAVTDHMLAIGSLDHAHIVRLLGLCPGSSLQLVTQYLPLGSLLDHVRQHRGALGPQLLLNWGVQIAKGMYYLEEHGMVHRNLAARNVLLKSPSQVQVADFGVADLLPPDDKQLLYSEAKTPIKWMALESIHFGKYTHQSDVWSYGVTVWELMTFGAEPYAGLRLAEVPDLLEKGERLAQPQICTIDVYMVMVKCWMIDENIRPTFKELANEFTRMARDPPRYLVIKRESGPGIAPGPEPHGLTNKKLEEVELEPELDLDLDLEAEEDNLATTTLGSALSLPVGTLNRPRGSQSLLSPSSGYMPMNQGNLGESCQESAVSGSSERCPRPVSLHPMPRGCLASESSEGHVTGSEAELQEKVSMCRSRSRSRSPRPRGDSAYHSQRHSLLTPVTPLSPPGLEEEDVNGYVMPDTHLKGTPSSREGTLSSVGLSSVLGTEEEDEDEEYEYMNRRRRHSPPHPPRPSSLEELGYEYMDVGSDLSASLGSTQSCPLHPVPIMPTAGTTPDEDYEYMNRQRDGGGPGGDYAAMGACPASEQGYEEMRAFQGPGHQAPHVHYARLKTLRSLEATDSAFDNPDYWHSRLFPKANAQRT

Kd [2] [µM] | Substance | binding to EGFR as seen by SPR [1]
 | tllarl-CONH2 [Peptide L1.3] | exhibited binding to the EGFR protein in a concentration-dependent manner
50 | Cyclo.L1.1: Cyclo(K(N3)larllt) (peptide) | 
 | GLARLLT-CONH2 (GLARLLT-NH2) [Peptide L1.6] | exhibited binding to the EGFR protein in a concentration-dependent manner

From publication PMC5775921 (Chemical biology & drug design, 2017)
